According to US20260026495A1, “STABLE PLASMIN COMPOSITIONS FOR ORGAN PRESERVATION AND RECONDITIONING” (Grifols Worldwide Operations Limited, priority 2022, published 2026):

What was measured:
[1] = Plasmin activity after storage, S-2403 chromogenic substrate; format: biochemical; details: plasmin 1 mg/mL stored at 0° C. over a 24-hour period; FIG. 4A
Method: To assess the compatibility of plasmin as an additive in Cold Storage Solutions, the activity of plasmin at a concentration of 1 mg/mL was assessed at multiple time points whilst stored at 0° C.
(white bars), 25° C. (black bars), or 37° C. (striped bars) for a 24 hour period. The commercial S-2403 plasmin specific chromogenic substrate was used to assess activity at each of the indicated times.
Significant plasmin activity is maintained when formulated with these excipients and diluted into organ preservation and reconditioning solutions. The commercial […] plasmin specific chromogenic substrate was used to assess activity at each of the indicated times.

[2] = system: plasmin; assay: Plasmin proteolytic activity in presence of TXA, S-2403 chromogenic substrate; format: biochemical, human; details: plasmin 1 mg/mL; TXA 0.001 mM to 100 mM; FIG. 3
From the text: S-2403 is a commercially available, plasmin specific chromogenic substrate.

| Compound | plasmin activity (kinetics) during storage [1] | proteolytic activity of plasmin (kinetics) [2] |
| --- | --- | --- |
| plasmin | unaltered kinetics | – |
| NC[C@H]1CC[C@H](C(=O)O)CC1 [TXA, tranexamic acid] | – | unaltered kinetics |
